Measured values taken from patent publication US12104181B2, “Compositions and methods for treating viral infections targeting TRIM7” (THE BOARD OF REGENTS OF THE UNIVERSITY OF TEXAS SYSTEM, priority 2021, dated 2024).
Several values for one entry are separate records, joined by “and”; a condition that tells them apart may be missing. Equal values may be shown once.

Test system: coxsackievirus B3 (CVB3-GFP)
Type: cell-based
Settings: HeLa cells, replicate R1; for Percent Infected R1: GFP-positive cells within RFP-positive gate

Row | Molecule | Percent Infected R1 | Z score R1
1 | TRIM68: human RING type E3 ligase expressed from lentiviral vector (protein, UniProt Q6AZZ1 1-485, looked up) E3 ubiquitin-protein ligase …: MDPTALVEAIVEEVACPICMTFLREPMSIDCGHSFCHSCLSGLWEIPGESQNWGYTCPLCRAPVQPRNLRPNWQLANVVEKVRLLRLHPGMGLKGDLCERHGEKLKMFCKEDVLIMCEACSQSPEHEAHSVVPMEDVAWEYKWELHEALEHLKKEQEEAWKLEVGERKRTATWKIQVETRKQSIVWEFEKYQRLLEKKQPPHRQLGAEVAAALASLQREAAETMQKLELNHSELIQQSQVLWRMIAELKERSQRPVRWMLQDIQEVLNRSKSWSLQQPEPISLELKTDCRVLGLREILKTYAADVRLDPDTAYSRLIVSEDRKRVHYGDTNQKLPDNPERFYRYNIVLGSQCISSGRHYWEVEVGDRSEWGLGVCKQNVDRKEVVYLSPHYGFWVIRLRKGNEYRAGTDEYPILSLPVPPRRVGIFVDYEAHDISFYNVTDCGSHIFTFPRYPFPGRLLPYFSPCYSIGTNNTAPLAICSLDGED | 62% | −0.338
2 | TRIM74: human RING type E3 ligase expressed from lentiviral vector (protein, UniProt Q86UV6 1-250, looked up, lentiviral expression, human RING type E3 ligase expressed from lentiviral vector) Tripartite motif-containing …: MAWQVSLLELEDWLQCPICLEVFKESLMLQCGHSYCKGCLVSLSYHLDTKVRCPMCWQVVDGSSSLPNVSLAWVIEALRLPGDPEPKVCVHHRNPLSLFCEKDQELICGLCGLLGSHQHHPVTPVSTVCSRMKEELAALFSELKQEQKKVDELIAKLVKNRTRIVNESDVFSWVIRREFQELRHPVDEEKARCLEGIGGHTRGLVASLDMQLEQAQGTRERLAQAECVLEQFGNEDHHEFIWKFHSMASR | 71.6% | −0.216
3 | TRIM65: human RING type E3 ligase expressed from lentiviral vector (protein, UniProt Q6PJ69 2-517, looked up) E3 ubiquitin-protein ligase …: AAQLLEEKLTCAICLGLYQDPVTLPCGHNFCGACIRDWWDRCGKACPECREPFPDGAELRRNVALSGVLEVVRAGPARDPGPDPGPGPDPAARCPRHGRPLELFCRTEGRCVCSVCTVRECRLHERALLDAERLKREAQLRASLEVTQQQATQAEGQLLELRKQSSQIQNSACILASWVSGKFSSLLQALEIQHTTALRSIEVAKTQALAQARDEEQRLRVHLEAVARHGCRIRELLEQVDEQTFLQESQLLQPPGPLGPLTPLQWDEDQQLGDLKQLLSRLCGLLLEEGSHPGAPAKPVDLAPVEAPGPLAPVPSTVCPLRRKLWQNYRNLTFDPVSANRHFYLSRQDQQVKHCRQSRGPGGPGSFELWQVQCAQSFQAGHHYWEVRASDHSVTLGVSYPQLPRCRLGPHTDNIGRGPCSWGLCVQEDSLQAWHNGEAQRLPGVSGRLLGMDLDLASGCLTFYSLEPQTQPLYTFHALFNQPLTPVFWLLEGRTLTLCHQPGAVFPLGPQEEVLS | 56.8% | −0.404
4 | RNF212: human RING type E3 ligase expressed from lentiviral vector (protein, UniProt Q495C1 1-297, looked up) Probable E3 SUMO-protein …: MANWVFCNRCFQPPHRTSCFSLTNCGHVYCDACLGKGKKNECLICKAPCRTVLLSKHTDADIQAFFMSIDSLCKKYSRETSQILEFQEKHRKRLLAFYREKISRLEESLRKSVLQIEQLQSMRSSQQTAFSTIKSSVSTKPHGCLLPPHSSAPDRLESMEVDLSPSPIRKSEIAAGPARISMISPPQDGRMGPHLTASFCFIPWLTLSKPPVPGECVISRGSPCFCIDVCPHWLLLLAFSSGRHGELTNSKTLPIYAEVQRAVLFPFQQAEGTLDTFRTPAVSVVFPLCQFERKKSF | 91.1% | 0.03
5 | TRIM67: human RING type E3 ligase expressed from lentiviral vector (protein, UniProt Q6ZTA4 1-783, looked up) Tripartite motif-containing …: MEEELKCPVCGSLFREPIILPCSHNVCLPCARTIAVQTPDGEQHLPQPLLLSRGSGLQAGAAAAASLEHDAAAGPACGGAGGSAAGGLGGGAGGGGDHADKLSLYSETDSGYGSYTPSLKSPNGVRVLPMVPAPPGSSAAAARGAACSSLSSSSSSITCPQCHRSASLDHRGLRGFQRNRLLEAIVQRYQQGRGAVPGTSAAAAVAICQLCDRTPPEPAATLCEQCDVLYCSACQLKCHPSRGPFAKHRLVQPPPPPPPPAEAASGPTGTAQGAPSGGGGCKSPGGAGAGATGGSTARKFPTCPEHEMENYSMYCVSCRTPVCYLCLEEGRHAKHEVKPLGAMWKQHKAQLSQALNGVSDKAKEAKEFLVQLKNILQQIQENGLDYEACLVAQCDALVDALTRQKAKLLTKVTKEREHKLKMVWDQINHCTLKLRQSTGLMEYCLEVIKENDPSGFLQISDALIKRVQVSQEQWVKGALEPKVSAEFDLTLDSEPLLQAIHQLDFIQMKCRVPPVPLLQLEKCCTRNNSVTLAWRMPPFTHSPVDGYILELDDGAGGQFREVYVGKETLCTIDGLHFNSTYNARVKAFNSSGVGPYSKTVVLQTSDVAWFTFDPNSGHRDIILSNDNQTATCSSYDDRVVLGTAAFSKGVHYWELHVDRYDNHPDPAFGVARASVVKDMMLGKDDKAWAMYVDNNRSWFMHCNSHTNRTEGGVCKGATVGVLLDLNKHTLTFFINGQQQGPTAFSHVDGVFMPALSLNRNVQVTLHTGLEVPTNLGRPKLSGN | 58.9% | −0.378
6 | RNF144B: human RING type E3 ligase expressed from lentiviral vector (protein, UniProt Q7Z419 1-303, looked up, lentiviral expression, human RING type E3 ligase expressed from lentiviral vector) E3 ubiquitin-protein ligase …: MGSAGRLHYLAMTAENPTPGDLAPAPLITCKLCLCEQSLDKMTTLQECQCIFCTACLKQYMQLAIREGCGSPITCPDMVCLNHGTLQEAEIACLVPVDQFQLYQRLKFEREVHLDPYRTWCPVADCQTVCPVASSDPGQPVLVECPSCHLKFCSCCKDAWHAEVSCRDSQPIVLPTEHRALFGTDAEAPIKQCPVCRVYIERNEGCAQMMCKNCKHTFCWYCLQNLDNDIFLRHYDKGPCRNKLGHSRASVMWNRTQVVGILVGLGIIALVTSPLLLLASPCIICCVCKSCRGKKKKHDPSTT | 93.9% | 0.07
7 | RNF25: human RING type E3 ligase expressed from lentiviral vector; listed twice (protein, UniProt Q96BH1 1-459, looked up, lentiviral expression) E3 ubiquitin-protein ligase …: MAASASAAAGEEDWVLPSEVEVLESIYLDELQVIKGNGRTSPWEIYITLHPATAEDQDSQYVCFTLVLQVPAEYPHEVPQISIRNPRGLSDEQIHTILQVLGHVAKAGLGTAMLYELIEKGKEILTDNNIPHGQCVICLYGFQEKEAFTKTPCYHYFHCHCLARYIQHMEQELKAQGQEQEQERQHATTKQKAVGVQCPVCREPLVYDLASLKAAPEPQQPMELYQPSAESLRQQEERKRLYQRQQERGGIIDLEAERNRYFISLQQPPAPAEPESAVDVSKGSQPPSTLAAELSTSPAVQSTLPPPLPVATQHICEKIPGTRSNQQRLGETQKAMLDPPKPSRGPWRQPERRHPKGGECHAPKGTRDTQELPPPEGPLKEPMDLKPEPHSQGVEGPPQEKGPGSWQGPPPRRTRDCVRWERSKGRTPGSSYPRLPRGQGAYRPGTRRESLGLESKDGS | 90.6% and 89.2% | 0.03 and 0.01
8 | TRIML1: human RING type E3 ligase expressed from lentiviral vector (protein, UniProt Q8N9V2 1-468, looked up) Probable E3 ubiquitin-protein …: MSTADLMENLREELTCFICLDYFSSPVTTECGHSFCLVCLLRSWEEHNTPLSCPECWRTLEGPHFQSNERLGRLASIARQLRSQVLQSEDEQGSYGRMPTTAKALSDDEQGGSAFVAQSHGANRVHLSSEAEEHHREKLQEILNLLRVRRKEAQAVLTHEKERVKLCQEETKTCKQVVVSEYMKMHQFLKEEEQLQLQLLEQEEKENMRKLRNNEIKLTQQIRSLSKMIAQIESSSQSSAFESLEEVRGALERSEPLLLQCPEATTTELSLCRITGMKEMLRKFSTEITLDPATANAYLVLSEDLKSVKYGGSRQQLPDNPERFDQSATVLGTQIFTSGRHYWEVEVGNKTEWEVGICKDSVSRKGNLPKPPGDLFSLIGLKIGDDYSLWVSSPLKGQHVREPVCKVGVFLDYESGHIAFYNGTDESLIYSFPQASFQEALRPIFSPCLPNEGTNTDPLTICSLNSHV | 77.6% | −0.14
9 | RNF122: human RING type E3 ligase expressed from lentiviral vector (protein, UniProt Q9H9V4 1-155, looked up) RING finger protein 122: MHPFQWCNGCFCGLGLVSTNKSCSMPPISFQDLPLNIYMVIFGTGIFVFMLSLIFCCYFISKLRNQAQSERYGYKEVVLKGDAKKLQLYGQTCAVCLEDFKGKDELGVLPCQHAFHRKCLVKWLEVRCVCPMCNKPIASPSEATQNIGILLDELV | 90.3% | 0.02
10 | TRIM75: human RING type E3 ligase expressed from lentiviral vector; listed twice (protein, UniProt A6NK02 1-468, looked up) Tripartite motif-containing …: MAVAAALTGLQAEAKCSICLDYLSDPVTIECGHNFCRSCIQQSWLDLQELFPCPVCRHQCQEGHFRSNTQLGRMIEIAKLLQSTKSNKRKQEETTLCEKHNQPLSVFCKEDLMVLCPLCTQPPDHQGHHVRPIEKAAIHYRKRFCSYIQPLKKQLADLQKLISTQSKKPLELREMVENQRQELSSEFEHLNQFLDREQQAVLSRLAEEEKDNQQKLSANITAFSNYSATLKSQLSKVVELSELSELELLSQIKIFYESENESSPSIFSIHLKRDGCSFPPQYSALQRIIKKFKVEIILDPETAHPNLIVSEDKKRVRFTKRKQKVPGFPKRFTVKPVVLGFPYFHSGRHFWEIEVGDKSEWAIGICKDSLPTKARRPSSAQQECWRIELQDDGYHAPGAFPTPLLLEVKARAIGIFLDYEMGEISFYNMAEKSHICTFTDTFTGPLRPYFYVGPDSQPLRICTGTVCE | 66.8% and 89.7% | −0.277 and 0.01
11 | TRIM72: human RING type E3 ligase expressed from lentiviral vector; listed twice (protein, UniProt Q6ZMU5 1-477, looked up) Tripartite motif-containing …: MSAAPGLLHQELSCPLCLQLFDAPVTAECGHSFCRACLGRVAGEPAADGTVLCPCCQAPTRPQALSTNLQLARLVEGLAQVPQGHCEEHLDPLSIYCEQDRALVCGVCASLGSHRGHRLLPAAEAHARLKTQLPQQKLQLQEACMRKEKSVAVLEHQLVEVEETVRQFRGAVGEQLGKMRVFLAALEGSLDREAERVRGEAGVALRRELGSLNSYLEQLRQMEKVLEEVADKPQTEFLMKYCLVTSRLQKILAESPPPARLDIQLPIISDDFKFQVWRKMFRALMPALEELTFDPSSAHPSLVVSSSGRRVECSEQKAPPAGEDPRQFDKAVAVVAHQQLSEGEHYWEVDVGDKPRWALGVIAAEAPRRGRLHAVPSQGLWLLGLREGKILEAHVEAKEPRALRSPERRPTRIGLYLSFGDGVLSFYDASDADALVPLFAFHERLPRPVYPFFDVCWHDKGKNAQPLLLVGPEGAEA | 60.2% and 88.1% | −0.361 and −0.01
